What was measured:
OBF1, MBP fusion = biological target: T1, OBF1, MBP fusion (Zea mays, UniProt P24068 1-151); assay: EMSA; poly(dI-dC), 5 mM MgCl2; EMSA: 10 mM Tris pH 7.5, 50 mM KCl, 1 mM DTT, 5 mM MgCl2, 2.5% glycerol, poly(dI-dC), 0.05% NP-40; 20-40 ng protein, probe 10 fM (so in the source); room temperature; settings: protein: recombinant; tags: N-MBP (pMAL-c2x); chain copies: 2; label: 5'-biotin; blunt
T1 sequence: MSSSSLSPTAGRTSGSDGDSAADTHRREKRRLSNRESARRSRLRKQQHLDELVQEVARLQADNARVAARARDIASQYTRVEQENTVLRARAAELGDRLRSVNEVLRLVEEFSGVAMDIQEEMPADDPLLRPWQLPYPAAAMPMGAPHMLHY

OBF4, MBP fusion = biological target: T2, OBF4, MBP fusion (Zea mays, UniProt B4FFB3 1-396); assay: as above; settings: protein: recombinant; tags: N-MBP (pMAL-c2x); chain copies: 2; label: 5'-biotin; blunt
T2 sequence: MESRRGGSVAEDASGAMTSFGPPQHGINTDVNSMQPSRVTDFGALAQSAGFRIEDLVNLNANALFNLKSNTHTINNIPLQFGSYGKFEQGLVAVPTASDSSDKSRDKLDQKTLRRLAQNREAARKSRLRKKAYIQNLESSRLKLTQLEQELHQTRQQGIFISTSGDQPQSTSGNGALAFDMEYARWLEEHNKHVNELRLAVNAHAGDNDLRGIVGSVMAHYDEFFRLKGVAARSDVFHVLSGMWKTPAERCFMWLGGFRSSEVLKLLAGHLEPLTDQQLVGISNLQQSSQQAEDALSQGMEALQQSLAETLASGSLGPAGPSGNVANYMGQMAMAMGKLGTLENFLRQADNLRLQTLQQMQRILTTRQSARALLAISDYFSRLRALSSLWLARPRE

B1: 3xE1 probe (3E1X) (dsDNA)
DNA 1: ACATGGCACGACACGTAGTGAACCACATGGCACGACACGTAGTGAACCACATGGCACGACACGTAGTGAACC
DNA 2: GGTTCACTACGTGTCGTGCCATGTGGTTCACTACGTGTCGTGCCATGTGGTTCACTACGTGTCGTGCCATGT
B1: binds (OBF1, MBP fusion); binds (OBF4, MBP fusion).

Reference: paper PMC7202667, “UNBRANCHED3 Expression and Inflorescence Development is Mediated by UNBRANCHED2 and the Distal Enhancer, KRN4, in Maize”
